Assays:
SOCS-2 promoter = SOCS-2 promoter reporter (luciferase) activity in HepG2 cells with or without IL-6; assay type: cell-based, human; conditions: IL-6 stimulation 3 hours, standardized by β-galactosidase activity, relative to absence of IL-6
Protocol: On the basis of the registered sequence (NCBI Reference Sequences No. NM_003877) of human SOCS-2, a genomic sequence which accords with the sequence was specified as the sequence of NCBI GenBank accession No. NC—000012.5—93000001—94000000. To obtain a DNA consisting of nucleotides 893,596-898,678 of NC—000012.5—93000001—94000000, which was considered the promoter region of human SOCS-2, i.e., a DNA consisting of the nucleotide sequence of SEQ ID NO: 3, the first PCR was carried out using synthetic oligo DNAs [5′-gtg[…]-3′ (SEQ ID NO: 8) and 5′-gtg[…]-3′ (SEQ ID NO: 9)] having restriction enzyme sites […] and NheI, respectively, and an LA Taq (TAKARA; catalogue code RR002A). The resulting PCR product was diluted to 1/50 with sterile water, and the second PCR was carried out using the diluted solution as a template, synthetic oligo DNAs [5′-gtg[…]-3′ (SEQ ID NO: 10) and 5′-gtg[…]-3′ (SEQ ID NO: 11)], and an LA Taq (TAKARA; catalogue code RR002A). […]
HepG2 cells (ATCC accession No. HB-8065) was transformed with the SOCS-2 reporter vector or the control vector prepared in Example 3(1) to measure the activity when stimulated with or without IL-6. […] The cells were lysed with a cell lysis solution LCβ (Toyo Ink MFG), and a luciferase activity was measured using a PicaGene coloring kit (Toyo Ink MFG; 309-04321). […]

endogenous SOCS-2 gene = test: Endogenous SOCS-2 mRNA in HepG2 cells by quantitative PCR with or without IL-6; assay type: cell-based, human; conditions: IL-6 10 ng/mL, 3 hours, compensated with G3PDH, relative to absence of IL-6
Protocol: First, an endogenous SOCS-2 promoter activity was measured. Since a stimulation capable of promoting the SOCS-2 promoter activity in pancreatic β cells was unknown, an amount of SOCS-2 mRNA was measured when stimulated by IL-6, which was a typical stimulation capable of increasing a transcriptional activity of STAT1, STAT3, or STAT5. It is considered that STAT1, STAT3, and STAT5 transduce an external signal, and finally promote a SOCS-2 transcriptional activity. More particularly, human HepG2 cells in which the IL-6 reactivity was confirmed were used to measure and compare amounts of endogenous SOCS-2 mRNA expressed when stimulated with or without IL-6 stimulation. The amount of gene expressed was compensated by measuring an amount of a G3PDH (Glyceraldehyde 3-phosphate dehydrogenase) gene expressed, at the same time. […] In this measuring system, an amount of fluorescence from a SYBR Green I dye incorporated into double-stranded DNAs amplified by PCR was detected and quantified in real time, to determine the amount of gene expressed. […]
The amount of […] SOCS-2 gene expressed was compensated with that of the G3PDH gene expressed in accordance with the following equation: C=A/B [C: Compensated amount of SOCS-2 expressed, A: Measured value of the SOCS-2 gene expressed, and B: Measured value of the G3PDH gene expressed]

[1] = test system: rat pancreatic Langerhans islets; test: Insulin secreted from rat pancreatic Langerhans islets overexpressing SOCS-2; assay type: cell-based; conditions: 90 minutes, adenovirus infected rat islets
Protocol: After 4 male rats (6-8 weeks old, 350 to 450 g in weight) were anesthetized, the abdomen was incised and exposed. A bile duct of the liver was ligated, and blood was drawn from the heart. From the bile duct, 5 mL of HBSS-HEPES (136.8 mmol/L NaCl, 5.3 mmol/L KCl, 0.8 mmol/L MgSO4, 1 mmol/L Na2HPO4, 0.44 mmol/L KH2PO4, 4.1 mmol/L NaHCO3, 10 mmol/L Hepes, 1 mmol/L CaCl2, and 2 mmol/L glucose, pH 7.2) supplemented with 0.02% Liberase (Roche Diagnostic) was injected using a winged needle. The pancreas was removed and transferred to a tube containing 5 mL of HBSS-HEPE, and incubated at 37° C. for 20 minutes. After the incubation, the whole was stirred, and ice-cold HBSS-HEPES-0.35% BSA was added. The mixture was centrifuged at 1500 rpm for 1 minute to remove the supernatant. To the precipitated tissues, 10 mL of HBSS-HEPES-0.35% BSA was added, and the tissues were suspended using a needle. This washing step was repeated twice. After the centrifugation, the supernatant was removed, and 10 mL of a 8.3% Ficoll-Conray solution was added and suspended. Further, 10 mL of HBSS-HEPES-0.35% BSA was added, and the whole was centrifuged for 20 minutes. After the centrifugation, pancreatic Langerhans islets between two liquid layers were collected. To the collected pancreatic Langerhans islets, 10 mL of HBSS-HEPES-0.35% BSA was added, and the whole was centrifuged. […]

MIN6B1 cells = test: Insulin secreted from MIN6B1 cells overexpressing SOCS-2; assay type: cell-based, mouse; conditions: 20 minutes, adenovirus infected MIN6B1 cells
Protocol: Mouse pancreatic β cell line MIN6B1 cells [Endocrinol. (2003) 144,. 1368-1379] were infected with SOCS-2/pAdTrack-CMV or pAdTrack-CMV (control) to prepare pancreatic β cells overexpressing SOCS-2, as described below.
MIN6B1 cells (2×10^5 cells) were seeded on a 24-well plate, and cultured for 24 hours in 0.5 mL of a minimum essential medium DMEM (GIBCO) containing 10% fetal bovine serum (SIGMA). SOCS-2/pAdTrack-CMV or pAdTrack-CMV (control) was added to each medium at a concentration of 4×10^8 pfu/well.
After 14 hours from the adenovirus infection of pancreatic β cells, each medium was aspirated, and cells were washed three times with KRB-HEPES (140 mmol/L NaCl, 3.6 mmol/L KCl, 0.5 mmol/L NaH2PO4, 0.5 mmol/L MgSO4, 1.5 mmol/L-CaCl2, 10 mmol/L Hepes, 2 mmol/L NaHCO3, and 0.1% BSA, pH 7.4), and incubated in 2.8 mmol/L glucose-containing KRB-HEPES (1 mL) at 37° C. for 1 hour in the presence of 5% CO2.
After the buffer was aspirated, 2.8 mmol/L or 16.8 mmol/L glucose-containing KRB-HEPES was added. The cells were further incubated at 37° C. for 20 minutes in the presence of 5% CO2, and an amount of insulin secreted into the supernatant was measured.
A commercially available insulin radioimmunoassay kit (Rat insulin [125I] RIA system; Amersham Bioscience) was used for the measurement of the amount of insulin secreted.

[2] = 16.8 mmol/L glucose, p<0.01 vs control

IL-6: typical stimulation capable of increasing a transcriptional activity of STAT1, STAT3, or STAT5 (R&D Systems)
SOCS-2 reporter activity, factor of increase (SOCS-2 promoter): approximately 2 | expression of the endogenous SOCS-2 gene, factor of increase (endogenous SOCS-2 gene): approximately 2

B1: SOCS-2: mouse SOCS-2 (amino acid sequence of SEQ ID NO: 2) overexpressed in pancreatic β cells via adenovirus vector pAdTrack-CMV (protein, listed as Mus sp.)
chain: MTLRCLEPSGNGADRTRSQWGTAGLPEEQSPEAARLAKALRELSQTGWYWGSMTVNEAKEKLKEAPEGTFLIRDSSHSDYLLTISVKTSAGPTNLRIEYQDGKFRLDSIICVKSKLKQFDSVVHLIDYYVQMCKDKRTGPEAPRNGTVHLYLTKPLYTSAPTLQHFCRLAINKCTGTIWGLPLPTRLKDYLEEYKFQV
insulin secretion versus control ([1]; 2.8 mmol/L glucose): no difference was observed | insulin secretion versus control [1, 2]: inhibited the activity of promoting insulin secretion | insulin secretion versus control (MIN6B1 cells; 2.8 mmol/L glucose): no difference was observed | insulin secretion versus control (MIN6B1 cells; [2]): inhibited the activity of promoting insulin secretion

Source: US20070231812A1, “Method of Screening Antidiabetic Agents” (priority 2004, published 2007)
